The data set deals with the molecule itself. The data set is described as follows: SEC-SAXS; SIBYLS beamline 12.3.1; Shodex KW-804 column for Pfs230D1-ferritin, Shodex KW-802.5 column for Pfs230D1; molecular weight from SAXS (ATSAS).

B1: Pfs230D1-ferritin (other)
chain: SVLQSGALPSVGVDELDKIDLSYETTESGDTAVSEDSYDKYASNNTNKEYVCDFTDQLKPTESGPKVKKCEVKVNEPLIKVKIICPLKGSVEKLYDNIEYVPKKSPYVVLTKEETKLKEKLLSKLIYGLLISPTVNEKENNFKEGVIEFTLPPVVHKATVFYFICDNSKTEDDNKKGNRGIVEVYVEPYGNKINGGGGGSGESQVRQQFSKDIEKLLNEQVNKEMQSSNLYMSMSSWCYTHSLDGAGLFLFDHAAEEYEHAKKLIIFLNENNVPVQLTSISAPEHKFEGLTQIFQKAYEHEQHISESINNIVDHAIKSKDHATFNFLQWYVAEQHEEEVLFKDILDKIELIGNENHGLYLADQYVKGIAKSRKS
notes: Pfs230 of Plasmodium falciparum 3D7 (XP_001349600.1): a portion of the N-terminal disordered region, amino acids 542-588, and domain 1 (D1), amino acids 589-736; linker that contains residues from the N-terminal extension found in bullfrog lower subunit ferritin; Helicobacter pylori ferritin (WP_000949190.1), amino acids 3-167, with I7E and N19Q; Cloned in a modified pHLSec with a secretion …
For B1, the “stoichiometry N” value came to 24.

B2: ferritin (H. pylori ferritin nanoparticle construct without Pfs230D1) (other)
chain: GGSGGSGGGGSGESQVRQQFSKDIEKLLNEQVNKEMQSSNLYMSMSSWCYTHSLDGAGLFLFDHAAEEYEHAKKLIIFLNENNVPVQLTSISAPEHKFEGLTQIFQKAYEHEQHISESINNIVDHAIKSKDHATFNFLQWYVAEQHEEEVLFKDILDKIELIGNENHGLYLADQYVKGIAKSRKS
notes: linker that contains residues from the N-terminal extension found in bullfrog lower subunit ferritin; Helicobacter pylori ferritin (WP_000949190.1), amino acids 3-167, with I7E and N19Q; Cloned in a modified pHLSec with a secretion signal ahead of the subunit; purified without a tag; Subunit theoretical molecular weight printed as 21.2 kDa; also called ferritin construct; Helicobacter pylori …
With B2, the “stoichiometry N” value came to 24.

These data come from paper PMC11125772, “A Self-Assembling Pfs230D1-Ferritin Nanoparticle Vaccine Has Potent and Durable Malaria Transmission-Reducing Activity” (Vaccines, 2024).
